Test in all cases: ITC; 400 µM TAZ1 or TAZ2 in the syringe injected into 16–30 µM MITF construct in the cell; 20 mM TRIS pH 8, 25 mM NaCl, 5 mM βME, 10 µM ZnCl2; 30 °C; single-binding-site fit; duplicate
What all share (conditions): both partners purified
(In ITC the heat of successive injections is recorded.)

Assay [1] addresses T1, MITF_(CTERM) (UniProt O75030-9 289-419).
T1 construct: numbers count on: the MITF-M isoform; 15N-labelled for the NMR titration; also called C-terminal MITF-M; MITF C-terminal region; source: E. coli BL21 (DE3), purified (Ni-NTA, TEV cleavage, Q-Sepharose)
T1 sequence (looked up): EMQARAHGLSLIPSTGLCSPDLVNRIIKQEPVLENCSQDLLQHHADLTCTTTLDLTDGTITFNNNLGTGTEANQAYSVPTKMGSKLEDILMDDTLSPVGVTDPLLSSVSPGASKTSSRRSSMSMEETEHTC

Assay [2] deals with T2, MITF_(ΔAcidic) (UniProt O75030-9 289-419, Δ372–381).
T2 construct: numbers count on: the MITF-M isoform; also called Δ372–381; deletion of the acidic region; source: E. coli BL21 (DE3), purified (Ni-NTA, TEV cleavage, Q-Sepharose)
T2 sequence (looked up): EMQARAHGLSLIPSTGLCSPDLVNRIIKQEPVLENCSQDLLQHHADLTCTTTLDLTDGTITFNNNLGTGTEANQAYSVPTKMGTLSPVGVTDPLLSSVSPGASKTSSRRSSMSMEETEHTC

Assay [3] deals with T3, MITF_(ΔThr-rich) (UniProt O75030-9 289-419, Δ334–345).
T3 construct: numbers count on: the MITF-M isoform; The methods print Δ334–354; the legend, the results and the canonical numbers (Δ441–452) give Δ334–345; also called Δ334–345; deletion of the threonine-rich region; source: E. coli BL21 (DE3), purified (Ni-NTA, TEV cleavage, Q-Sepharose)
T3 sequence (looked up): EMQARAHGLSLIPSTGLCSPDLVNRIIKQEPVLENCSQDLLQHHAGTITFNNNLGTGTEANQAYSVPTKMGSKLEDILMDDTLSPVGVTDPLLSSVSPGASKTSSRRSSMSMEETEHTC

Assay [4] concerns the target T4, MITF_(ΔSer-rich) (UniProt O75030-9 289-419, Δ394–411).
T4 construct: numbers count on: the MITF-M isoform; The methods print Δ372–381 for this variant too; the legend, the results and the canonical numbers (Δ501–518) give Δ394–411; also called Δ394–411; deletion of the serine-rich region; source: E. coli BL21 (DE3), purified (Ni-NTA, TEV cleavage, Q-Sepharose)
T4 sequence (looked up): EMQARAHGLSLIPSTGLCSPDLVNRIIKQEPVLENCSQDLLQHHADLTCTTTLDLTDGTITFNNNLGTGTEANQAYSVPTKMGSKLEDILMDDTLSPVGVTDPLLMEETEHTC

Here are results for 2 molecules from article PMC10522771, “The C-terminal transactivation domain of MITF interacts promiscuously with co-activator CBP/p300” (Scientific Reports, 2023).

B1: TAZ1 domain of CBP/p300 (domain or fragment)
chain: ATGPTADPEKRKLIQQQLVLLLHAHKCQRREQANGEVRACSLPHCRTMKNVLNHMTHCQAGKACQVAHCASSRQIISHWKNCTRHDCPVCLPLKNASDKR
modifications: three structural Zn2+ ions expected; the paper does not state CBP or p300, species or limits (described in a cited paper); mouse CBP TAZ1 340-439 taken by convention
In general, Kd refers to the free concentration of one partner at which half of the binding sites on the other are occupied at equilibrium, for simple one-to-one binding. High values mean lower affinity, low ones higher affinity. B1 yielded a Kd in assay [1] of 5 ± 0.31 µM.

B2: TAZ2 domain of CBP/p300 (domain or fragment)
chain: GDSRRLSIQRCIQSLVHACQCRNANCSLPSCQKMKRVVQHTKGCKRKTNGGCPICKQLIALCCYHAKHCQENKCPVPFCLNI
Take B2: the Kd in assay [2] was found to be 7.24 ± 0.7 µM; in assay [3] it was 0.41 ± 0.02 µM; in assay [1] it was 0.76 ± 0.05 µM; in assay [4] it was 2.26 ± 0.09 µM.
